From PMC1635325 (Nucleic Acids Research, 2006)

B1: recombinant MnmE (rMnmE, 53 kDa) (natural protein, E. coli, UniProt P25522 1-454, looked up)
chain: MSDNDTIVAQATPPGRGGVGILRISGFKAREVAETVLGKLPKPRYADYLPFKDADGSVLDQGIALWFPGPNSFTGEDVLELQGHGGPVILDLLLKRILTIPGLRIARPGEFSERAFLNDKLDLAQAEAIADLIDASSEQAARSALNSLQGAFSARVNHLVEALTHLRIYVEAAIDFPDEEIDFLSDGKIEAQLNDVIADLDAVRAEARQGSLLREGMKVVIAGRPNAGKSSLLNALAGREAAIVTDIAGTTRDVLREHIHIDGMPLHIIDTAGLREASDEVERIGIERAWQEIEQADRVLFMVDGTTTDAVDPAEIWPEFIARLPAKLPITVVRNKADITGETLGMSEVNGHALIRLSARTGEGVDVLRNHLKQSMGFDTNMEGGFLARRRHLQALEQAAEHLQQGKAQLLGAWAGELLAEELRLAQQNLSEITGEFTSDDLLGRIFSSFCIGK
B2: FLAG-GidA (natural protein, E. coli, UniProt P0A6U3 1-629, looked up)
chain: MFYPDPFDVIIIGGGHAGTEAAMAAARMGQQTLLLTHNIDTLGQMSCNPAIGGIGKGHLVKEVDALGGLMAKAIDQAGIQFRILNASKGPAVRATRAQADRVLYRQAVRTALENQPNLMIFQQAVEDLIVENDRVVGAVTQMGLKFRAKAVVLTVGTFLDGKIHIGLDNYSGGRAGDPPSIPLSRRLRELPLRVGRLKTGTPPRIDARTIDFSVLAQQHGDNPMPVFSFMGNASQHPQQVPCYITHTNEKTHDVIRSNLDRSPMYAGVIEGVGPRYCPSIEDKVMRFADRNQHQIFLEPEGLTSNEIYPNGISTSLPFDVQMQIVRSMQGMENAKIVRPGYAIEYDFFDPRDLKPTLESKFIQGLFFAGQINGTTGYEEAAAQGLLAGLNAARLSADKEGWAPARSQAYLGVLVDDLCTLGTKEPYRMFTSRAEYRLMLREDNADLRLTEIGRELGLVDDERWARFNEKLENIERERQRLKSTWVTPSAEAAAEVNAHLTAPLSREASGEDLLRRPEMTYEKLTTLTPFAPALTDEQAAEQVEIQVKYEGYIARQQDEIEKQLRNENTLLPATLDYRQVSGLSNEVIAKLNDHKPASIGQASRISGVTPAAISILLVWLKKQGMLRRSA

Tests used:
FLAG-GidA = molecular target: B2; assay: native gel or EMSA
SEC = molecular target: the molecule itself; assay: SEC

stoichiometry N (FLAG-GidA) | Binder | stoichiometry N (SEC)
1 MnmE per GidA (α2β2, 2:2) | B1 | –
– | B2 | 2
